The values that follow come from publication PMC4477864.

In assay [1] the target is tubulin purified from cow brain (phosphocellulose-purified), assembled as vinblastine-induced curls, (cow) (UniProt Q2T9S0). Put plainly: co-sedimentation.
Assay [2] concerns the target CENP-F N558 (amino acids 1–558) (human). Put plainly: sucrose gradient sedimentation + SEC.
In assay [3] the target is subtilisin-treated Taxol-stabilized MTs (S-MTs) (cow) (UniProt Q2T9S0). Briefly: TIRF microscopy of MT-associated GFP fluorescence.
Chain of subtilisin-treated Taxol-stabilized MTs (S-MTs) (cow) (Q2T9S0 whole entry, looked up): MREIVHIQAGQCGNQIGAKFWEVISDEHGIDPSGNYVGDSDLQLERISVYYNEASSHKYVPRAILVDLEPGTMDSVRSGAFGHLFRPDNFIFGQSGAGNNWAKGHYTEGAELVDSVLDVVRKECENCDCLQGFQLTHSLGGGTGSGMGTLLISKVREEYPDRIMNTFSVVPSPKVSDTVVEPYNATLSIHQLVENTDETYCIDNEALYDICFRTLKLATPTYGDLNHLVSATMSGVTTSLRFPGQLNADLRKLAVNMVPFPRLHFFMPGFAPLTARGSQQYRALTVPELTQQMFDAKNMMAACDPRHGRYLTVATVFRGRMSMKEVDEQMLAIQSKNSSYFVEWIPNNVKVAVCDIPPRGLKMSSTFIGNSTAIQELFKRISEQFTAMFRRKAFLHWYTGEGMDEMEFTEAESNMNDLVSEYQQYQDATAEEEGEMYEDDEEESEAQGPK

Bounds are passed on as bounds.

For “CENP-F N558 (amino acids 1–558) (domain or fragment)”, in assay [1], the Kd was determined as 16 nM, the fold lower KD than for Tx-MTs is above 5 fold and the fold stronger binding than to Tx-MTs was below 2 fold. Moreover, the stoichiometry N in assay [2] amounted to 2.

In assay [3], “N436-sfGFP (CENP-F amino acids 1–436 fused to super-folding GFP) (domain or fragment)” had a fold reduction of MT-associated GFP fluorescence against untreated MTs of 8 fold.

As usually defined, the Kd is the constant that tells how readily two partners part at equilibrium. A word on the stoichiometry N: it is a count of units in the complex or per binding partner.
